Data published in PMC5890266, “Targeting the polyadenylation factor EhCFIm25 with RNA aptamers controls survival in Entamoeba histolytica”.

Molecular target: T1, EhCFIm25 wild type (Entamoeba histolytica, UniProt C4M2T1 1-255)
T1 sequence: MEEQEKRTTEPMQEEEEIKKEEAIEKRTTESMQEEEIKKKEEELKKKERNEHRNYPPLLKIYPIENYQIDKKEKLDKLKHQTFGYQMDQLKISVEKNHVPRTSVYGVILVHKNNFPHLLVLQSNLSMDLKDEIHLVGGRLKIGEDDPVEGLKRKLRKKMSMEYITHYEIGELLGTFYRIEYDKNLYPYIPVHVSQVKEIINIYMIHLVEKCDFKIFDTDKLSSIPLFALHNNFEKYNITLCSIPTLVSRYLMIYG
Test: EMSA; REMSA: RNA probe (100 ng/ul) with 20 ug EhCFIm25 or 50 ug extract, room temperature 20 min, 10% non-denaturing PAGE, LightShift Chemiluminescent RNA EMSA Kit; buffer, salt and pH not stated
Conditions: protein: recombinant, tags: 6xHis (pRSET vector), chain copies: 2

B1: GUUG-probe (ssRNA)
RNA: AAUAAUACGACUCACUAUAGACGAAAUGGUUGUCAACGACGAUUA
Question: Does B1 bind (label: biotin as probe)?
Answer: Result: binds

B2: CAAC-probe (ssRNA)
RNA: AAUAAUACGACUCACUAUAGACGAAAUGCAACUCAACGACGAUUA
Question: Does B2 bind (label: biotin)?
Answer: Result: no binding

B3: Ehthio-3'UTR (ssRNA)
RNA: AAGGGUAGGAAAAAUUGAAACAUUAAAAGAUUUUCCUUCUUUUAAAGACAGAGUAAAAGAACCAUAUGUUGCUCCAAAAUAUGAAGAAGAAGAACUUUAAAUAAUAACUUUUUCAAGAACAAAAAUUAAUAACAAAUUUAUUUUAUUUGAUUUUACAAUUCUUGUUAUUAUAUGUUGAUAUUUAUUUAAAAUACUCUUUCUUUUAAUUUUUGUUUUUAUUAACAAUAUAUUUUAUAUUAAAUAAAGUUUAAUGAAAAAAAAGUAUUAAAAAGUUGUAAUAAACCUAAUUAAUAAAUGUUU
Question: Does B3 bind (label: biotin (Biotin RNA Labeling Mix))?
Answer: Result: binds
